Assays:
ヒトFcγRIIa (H) [1] = target: T1, ヒトFcγRIIa (H) (human, UniProt P12318 34-217); assay: SPR, KD
T1 construct: extracellular domain; also called FcγRIIa H型
T1 sequence (looked up): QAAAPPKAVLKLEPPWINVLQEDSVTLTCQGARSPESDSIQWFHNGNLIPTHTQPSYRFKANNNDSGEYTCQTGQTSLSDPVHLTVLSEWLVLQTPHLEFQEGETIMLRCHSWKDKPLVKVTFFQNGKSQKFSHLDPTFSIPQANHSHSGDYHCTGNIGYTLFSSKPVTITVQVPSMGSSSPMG

ヒトFcγRIa [2] = target: T2, ヒトFcγRIa (human, UniProt P12314 16-292); assay: SPR, KD
ヒトFcγRIIa (R) [3] = target: T3, ヒトFcγRIIa (R) (human, UniProt P12318 34-217); assay: SPR, KD
T3 construct: extracellular domain; N-glycans trimmed with Endo F1/F2/F3 for the crystals; also called FcγRIIa R型
T3 sequence (looked up): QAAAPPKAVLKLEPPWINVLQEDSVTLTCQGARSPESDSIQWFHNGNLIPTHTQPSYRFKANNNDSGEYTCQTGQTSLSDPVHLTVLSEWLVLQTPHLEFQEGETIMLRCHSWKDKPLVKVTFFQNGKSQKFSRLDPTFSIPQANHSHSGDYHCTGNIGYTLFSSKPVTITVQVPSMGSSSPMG

ヒトFcγRIIb [4] = target: T4, ヒトFcγRIIb (human, UniProt P31994 43-217); assay: SPR, figure legend (Fig. 6)
T4 construct: extracellular domain; for the crystals it was expressed with kifunensine and its N-glycans trimmed with Endo F1; also called FcγRIIb細胞外領域
T4 sequence (looked up): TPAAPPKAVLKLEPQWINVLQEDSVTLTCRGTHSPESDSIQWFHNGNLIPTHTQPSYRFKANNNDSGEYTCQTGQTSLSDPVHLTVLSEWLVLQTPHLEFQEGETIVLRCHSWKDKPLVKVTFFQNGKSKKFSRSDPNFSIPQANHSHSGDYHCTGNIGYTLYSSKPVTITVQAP

ヒトFcγRIIIa (F) = target: T5, ヒトFcγRIIIa (F) (human, UniProt P08637 17-208); assay: SPR, figure legend (Fig. 7)
T5 construct: extracellular domain
T5 sequence (P08637 17-208): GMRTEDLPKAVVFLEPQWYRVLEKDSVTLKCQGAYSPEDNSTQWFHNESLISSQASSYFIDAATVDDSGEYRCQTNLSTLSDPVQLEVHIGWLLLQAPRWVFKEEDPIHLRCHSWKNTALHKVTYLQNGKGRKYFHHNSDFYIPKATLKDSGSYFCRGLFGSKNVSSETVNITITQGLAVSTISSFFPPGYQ

ヒトFcRn = target: T6, ヒトFcRn (human, UniProt P55899 24-290; P61769 21-119, limits assumed); assay: SPR, figure legends of Figs. 3-11
T6 construct: also called human FcRn; complex of human FcRn and human beta-2 microglobulin
T6 sequence (P55899 24-290 limits assumed, chain 1 of 2): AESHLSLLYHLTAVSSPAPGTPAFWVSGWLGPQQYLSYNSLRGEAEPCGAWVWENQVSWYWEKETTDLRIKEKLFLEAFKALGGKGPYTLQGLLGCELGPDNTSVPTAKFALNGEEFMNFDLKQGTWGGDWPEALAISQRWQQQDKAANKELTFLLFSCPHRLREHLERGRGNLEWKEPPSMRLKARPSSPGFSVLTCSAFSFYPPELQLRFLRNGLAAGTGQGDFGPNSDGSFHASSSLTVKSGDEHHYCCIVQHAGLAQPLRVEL
T6 sequence (P61769 21-119 limits assumed, chain 2 of 2): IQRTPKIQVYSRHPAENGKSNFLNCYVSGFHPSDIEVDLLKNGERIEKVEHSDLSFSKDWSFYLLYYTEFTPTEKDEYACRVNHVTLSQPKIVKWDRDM

ヒトFcγRIIa (R) [5] = target: T3, ヒトFcγRIIa (R); assay: SPR, figure legend (Fig. 4)
ヒトFcγRIIa (H) [6] = target: T1, ヒトFcγRIIa (H); assay: SPR, figure legend (Fig. 5)
ヒトFcγRIa [7] = target: T2, ヒトFcγRIa; assay: SPR, figure legend (Fig. 3)
マウスFcγRIIb = target: T7, マウスFcγRIIb (mouse, UniProt P08101 30-210, limits assumed); assay: SPR, Biacore; antibody captured on immobilised human FcRn, FcγR as analyte, pH 7.4, 25C
T7 construct: also called mouse FcγRIIb
T7 sequence (looked up): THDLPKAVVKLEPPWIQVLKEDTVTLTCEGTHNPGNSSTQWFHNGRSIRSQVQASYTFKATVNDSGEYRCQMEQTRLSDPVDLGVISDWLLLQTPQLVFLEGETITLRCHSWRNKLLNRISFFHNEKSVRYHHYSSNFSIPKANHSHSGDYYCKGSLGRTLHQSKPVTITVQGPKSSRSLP

マウスFcγRI = target: T8, マウスFcγRI (mouse, UniProt P26151 25-297, limits assumed); assay: as above
T8 construct: also called mouse FcγRI
T8 sequence (looked up): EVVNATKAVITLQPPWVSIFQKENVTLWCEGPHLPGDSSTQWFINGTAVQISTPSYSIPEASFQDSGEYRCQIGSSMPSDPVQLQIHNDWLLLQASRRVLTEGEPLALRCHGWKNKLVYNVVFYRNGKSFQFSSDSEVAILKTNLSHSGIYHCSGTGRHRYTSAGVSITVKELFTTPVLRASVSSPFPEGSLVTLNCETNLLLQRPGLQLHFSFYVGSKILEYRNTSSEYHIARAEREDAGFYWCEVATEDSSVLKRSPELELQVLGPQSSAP

マウスFcγRIII = target: T9, マウスFcγRIII (mouse, UniProt P08508 31-215, limits assumed); assay: as above
T9 construct: also called mouse FcγRIII
T9 sequence (looked up): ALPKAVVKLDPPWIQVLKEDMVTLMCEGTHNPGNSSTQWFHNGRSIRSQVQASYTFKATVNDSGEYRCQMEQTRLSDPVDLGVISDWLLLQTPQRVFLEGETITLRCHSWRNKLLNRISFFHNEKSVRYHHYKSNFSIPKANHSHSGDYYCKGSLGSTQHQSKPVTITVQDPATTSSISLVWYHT

マウスFcRn [8] = target: T10, マウスFcRn (mouse, UniProt Q61559 22-297, limits assumed); assay: SPR, Biacore T100, pH 7.0, 25C
T10 construct: also called mouse FcRn
T10 sequence (looked up): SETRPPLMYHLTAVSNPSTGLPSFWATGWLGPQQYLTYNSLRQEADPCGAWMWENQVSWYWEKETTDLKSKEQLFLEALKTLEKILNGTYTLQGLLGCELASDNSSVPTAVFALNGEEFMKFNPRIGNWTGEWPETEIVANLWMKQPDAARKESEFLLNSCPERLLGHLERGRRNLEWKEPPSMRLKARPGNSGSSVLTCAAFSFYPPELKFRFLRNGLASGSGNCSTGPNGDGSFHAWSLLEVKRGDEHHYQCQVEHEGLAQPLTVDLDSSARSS

マウスFcRn [9] = target: T10, マウスFcRn; assay: SPR, Biacore T100; antibody captured on protein L, FcRn as analyte, pH 7.0, 25C; reference Fv4-IgG1
ヒトFcγRIIb [10] = target: T4, ヒトFcγRIIb; assay: SPR, KD; reference IL6R-B3/IL6R-L; the lowest of the named variants
ヒトFcγRIIb [11] = target: T4, ヒトFcγRIIb; assay: SPR, KD; reference IL6R-B3/IL6R-L; the highest of the named variants
ヒトFcγRIIb [12] = target: T4, ヒトFcγRIIb; assay: SPR, KD; reference IL6R-B3/IL6R-L
ヒトFcγRIIa (R) [13] = target: T3, ヒトFcγRIIa (R); assay: SPR, KD; reference IL6R-B3/IL6R-L

T2 sequence (P12314 16-292): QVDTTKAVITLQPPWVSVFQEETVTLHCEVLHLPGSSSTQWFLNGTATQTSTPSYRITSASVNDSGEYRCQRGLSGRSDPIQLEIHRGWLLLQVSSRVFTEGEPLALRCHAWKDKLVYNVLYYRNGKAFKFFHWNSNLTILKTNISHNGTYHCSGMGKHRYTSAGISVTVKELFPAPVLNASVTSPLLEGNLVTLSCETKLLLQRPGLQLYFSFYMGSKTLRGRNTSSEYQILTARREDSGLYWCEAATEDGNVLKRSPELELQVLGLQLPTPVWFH

B1: IL6R-B3/IL6R-L (antibody, human IgG1)
heavy: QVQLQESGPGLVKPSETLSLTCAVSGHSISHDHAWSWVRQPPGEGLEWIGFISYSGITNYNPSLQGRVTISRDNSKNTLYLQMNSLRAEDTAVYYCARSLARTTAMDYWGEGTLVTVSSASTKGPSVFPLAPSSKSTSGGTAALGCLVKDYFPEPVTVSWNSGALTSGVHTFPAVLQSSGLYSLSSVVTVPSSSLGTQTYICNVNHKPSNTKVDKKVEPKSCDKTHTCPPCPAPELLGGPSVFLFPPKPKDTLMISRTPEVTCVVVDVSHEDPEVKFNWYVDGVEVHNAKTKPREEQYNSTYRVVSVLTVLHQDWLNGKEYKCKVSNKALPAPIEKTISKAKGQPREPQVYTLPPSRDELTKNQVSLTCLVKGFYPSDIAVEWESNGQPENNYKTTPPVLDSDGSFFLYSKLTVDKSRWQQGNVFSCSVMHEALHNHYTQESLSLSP
light: DIQMTQSPSSLSASVGDRVTITCRASQDISSYLNWYQQKPGKAPKLLIYYTSRLHSGVPSRFSGSGSGTDFTFTISSLQPEDIATYYCQQGNTLPYTFGQGTKVEIK
Question: Does B1 bind (ヒトFcγRIIa (H) [1])?
Answer: Result: binds

Question: Does B1 bind (ヒトFcγRIa [2])?
Answer: Result: binds

Question: Does B1 bind (ヒトFcγRIIa (R) [3])?
Answer: Result: binds

B2: Fv4-IgG1-F157 (antibody)
heavy: QVQLQESGPGLVKPSETLSLTCAVSGHSISHDHAWSWVRQPPGEGLEWIGFISYSGITNYNPSLQGRVTISRDNSKNTLYLQMNSLRAEDTAVYYCARSLARTTAMDYWGEGTLVTVSSASTKGPSVFPLAPSSKSTSGGTAALGCLVKDYFPEPVTVSWNSGALTSGVHTFPAVLQSSGLYSLSSVVTVPSSSLGTQTYICNVNHKPSNTKVDKKVEPKSCDKTHTCPPCPAPELLGGPSVFLFPPKPKDTLMISRTAEVTCVVVDVSHEDPEVKFNWYVDGVEVHNAKTKPREEQYNSTYRVVSVLTPLHQDWLNGKEYKCKVSNKALPAPIEKTISKAKGQPREPQVYTLPPSRDELTKNQVSLTCLVKGFYPSDIAVEWESNGQPENNYKTTPPVLDSDGSFFLYSKLTVDKSRWQQGNVFSCSVLHEALHYHYTQKSLSLSP
light: DIQMTQSPSSLSASVGDSVTITCQASTDISSHLNWYQQKPGKAPELLIYYGSHLLSGVPSRFSGSGSGTDFTFTISSLEAEDAATYYCGQGNRLPYTFGQGTKVEIERTVAAPSVFIFPPSDEQLKSGTASVVCLLNNFYPREAKVQWKVDNALQSGNSQESVTEQDSKDSTYSLSSTLTLSKADYEKHKVYACEVTHQGLSSPVTKSFNRGEC
notes: also called VH3-IgG1-F157/VL3-CK
Question: Does B2 bind (ヒトFcγRIIb [4])?
Answer: Result: binds

Question: Does B2 bind (ヒトFcγRIIIa (F))?
Answer: Result: binds

Question: Does B2 bind (ヒトFcRn)?
Answer: Result: binds

Question: Does B2 bind (ヒトFcγRIIa (R) [5])?
Answer: Result: binds

Question: Does B2 bind (ヒトFcγRIIa (H) [6])?
Answer: Result: binds

Question: Does B2 bind (ヒトFcγRIa [7])?
Answer: Result: binds

Question: Does B2 bind (マウスFcγRIIb)?
Answer: Result: binds

Question: Does B2 bind (マウスFcγRI)?
Answer: Result: binds

Question: Does B2 bind (マウスFcγRIII)?
Answer: Result: binds

B3: Fv4-hF1 (antibody, human IgG1, kappa)
heavy: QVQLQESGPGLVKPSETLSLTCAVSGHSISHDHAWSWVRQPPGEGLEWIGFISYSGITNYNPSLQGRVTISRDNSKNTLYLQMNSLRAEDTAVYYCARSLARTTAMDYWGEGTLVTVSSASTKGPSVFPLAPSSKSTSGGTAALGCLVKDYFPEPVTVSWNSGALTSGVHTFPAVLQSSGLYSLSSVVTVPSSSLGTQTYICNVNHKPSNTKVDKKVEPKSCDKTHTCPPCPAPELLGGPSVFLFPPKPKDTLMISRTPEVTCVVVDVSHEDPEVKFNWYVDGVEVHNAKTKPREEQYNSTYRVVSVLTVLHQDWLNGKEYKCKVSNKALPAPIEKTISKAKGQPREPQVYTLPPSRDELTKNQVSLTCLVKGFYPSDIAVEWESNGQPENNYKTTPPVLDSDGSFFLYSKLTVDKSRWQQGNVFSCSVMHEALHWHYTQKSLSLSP
light: DIQMTQSPSSLSASVGDSVTITCQASTDISSHLNWYQQKPGKAPELLIYYGSHLLSGVPSRFSGSGSGTDFTFTISSLEAEDAATYYCGQGNRLPYTFGQGTKVEIERTVAAPSVFIFPPSDEQLKSGTASVVCLLNNFYPREAKVQWKVDNALQSGNSQESVTEQDSKDSTYSLSSTLTLSKADYEKHKVYACEVTHQGLSSPVTKSFNRGEC
Question: Which Kd (マウスFcRn [8]) does the source give for B3 here?
Answer: Its Kd is 150 nM.

Question: What about the “fold improvement of affinity against IgG1” value (マウスFcRn [9]) of the same binder?
Answer: The value was about 24.7 fold.

B4: IL6R-BP495/IL6R-L (antibody)
chain 1: QVQLQESGPGLVKPSETLSLTCAVSGHSISHDHAWSWVRQPPGEGLEWIGFISYSGITNYNPSLQGRVTISRDNSKNTLYLQMNSLRAEDTAVYYCARSLARTTAMDYWGEGTLVTVSSASTKGPSVFPLAPSSKSTSGGTAALGCLVKDYFPEPVTVSWNSGALTSGVHTFPAVLQSSGLYSLSSVVTVPSSSLGTQTYICNVNHKPSNTKVDKKVEPKSCDKTHTCPPCPAPELLGDDSVFLFPPKPKDTLMISRTPEVTCVVVDVGEEDGEVKFNWYVDGVEVHNAKTKPREEQDNSTYRVVSVLTVLHQDWLNGKEYKCKVSNKALPRPIEKTISKAKGQPREPQVYTLPPSRDELTKNQVSLTCLVKGFYPSDIAVEWESNGQPENNYKTTPPVLDSDGSFFLYSKLTVDKSRWQQGNVFSCSVMHEALHNHYTQESLSLSP
chain 2: not shown
Question: B4 was tested. Which “fold enhancement of binding, IL6R-B3/IL6R-L = 1” value (ヒトFcγRIIb [10]) did it give?
Answer: The value was 321 fold.

B5: IL6R-BP489/IL6R-L (antibody)
chain 1: QVQLQESGPGLVKPSETLSLTCAVSGHSISHDHAWSWVRQPPGEGLEWIGFISYSGITNYNPSLQGRVTISRDNSKNTLYLQMNSLRAEDTAVYYCARSLARTTAMDYWGEGTLVTVSSASTKGPSVFPLAPSSKSTSGGTAALGCLVKDYFPEPVTVSWNSGALTSGVHTFPAVLQSSGLYSLSSVVTVPSSSLGTQTYICNVNHKPSNTKVDKKVEPKSCDKTHTCPPCPAPDLLGDDSVFLFPPKPKDTLMISRTPEVTCVVIDVAEEDGEVKFNWYVDGVEVHNAKTKPREEQDNSTYRVVSVLTVLHQDWLNGKEYKCKVSNKALPRPIEKTISKAKGQPREPQVYTLPPSRDELTKNQVSLTCLVKGFYPSDIAVEWESNGQPENNYKTTPMVLDSDGSFFLYSKLTVDKSRWQQGNVFSCSVMHEALHNHYTQESLSLSP
chain 2: not shown
Question: How did the “fold enhancement of binding, IL6R-B3/IL6R-L = 1” value (ヒトFcγRIIb [11]) turn out when B5 was run?
Answer: Its value is 3100 fold.

B6: IL6R-BP230/IL6R-L (antibody)
chain 1: QVQLQESGPGLVKPSETLSLTCAVSGHSISHDHAWSWVRQPPGEGLEWIGFISYSGITNYNPSLQGRVTISRDNSKNTLYLQMNSLRAEDTAVYYCARSLARTTAMDYWGEGTLVTVSSASTKGPSVFPLAPSSKSTSGGTAALGCLVKDYFPEPVTVSWNSGALTSGVHTFPAVLQSSGLYSLSSVVTVPSSSLGTQTYICNVNHKPSNTKVDKKVEPKSCDKTHTCPPCPAPDLLGDDSVFLFPPKPKDTLMISRTPEVTCVVVDVSDEDGEVKFNWYVDGVEVHNAKTKPREEQDNSTYRVVSVLTVLHQDWLNGKEYKCKVSNKALPRPIEKTISKAKGQPREPQVYTLPPSRDELTKNQVSLTCLVKGFYPSDIAVEWESNGQPENNYKTTPPVLDSDGSFFLYSKLTVDKSRWQQGNVFSCSVMHEALHNHYTQESLSLSP
chain 2: not shown
Question: What does the source list for B6?
Answer: fold enhancement of binding against IL6R-B3/IL6R-L (ヒトFcγRIIb [12]): ~150 fold; fold improvement of binding activity against IL6R-B3 (ヒトFcγRIIb [12]): 148 fold; fold enhancement of binding against IL6R-B3/IL6R-L (ヒトFcγRIIa (R) [13]): ~1.9 fold

Reference: patent JP2014043405A (dated 2014)
